According to publication PMC2913173 (Journal of molecular biology, 2009):

Assays:
Assay in all cases: flow cytometry on cells
[1] = biological target: T1, Bak(72–89) R88E–eCPX fusion displayed on E. coli (UniProt Q16611 72-89, R88E)
T1 chain (looked up): GQVGRQLAIIGDDINREY

[2] = biological target: T2, Bak(72–87)–eCPX fusion displayed on E. coli (UniProt Q16611 72-87)
T2 chain (looked up): GQVGRQLAIIGDDINR

[3] = biological target: T3, Bak(72–89) R88A–eCPX fusion displayed on E. coli (UniProt Q16611 72-89, R88A)
T3 chain (looked up): GQVGRQLAIIGDDINRAY

[4] = biological target: T4, Bak(72–88)–eCPX fusion displayed on E. coli (UniProt Q16611 72-88)
T4 chain (looked up): GQVGRQLAIIGDDINRR

[5] = biological target: T5, Bak(72–89) Y89A–eCPX fusion displayed on E. coli (UniProt Q16611 72-89, Y89A)
T5 chain (looked up): GQVGRQLAIIGDDINRRA

[6] = biological target: T6, Bak(72–89)–eCPX fusion displayed on E. coli (UniProt Q16611 72-89)
T6 chain (looked up): GQVGRQLAIIGDDINRRY

[7] = biological target: T7, Bak(72–89) R88Q–eCPX fusion displayed on E. coli (UniProt Q16611 72-89, R88Q)
T7 chain (looked up): GQVGRQLAIIGDDINRQY

B1: biotinylated Bcl-2 chimera (isoform 2): residues 1–34 of Bcl-2, residues 35–50 of Bcl-xL, residues 92–207 of Bcl-2 (other, UniProt P10415 1-34, looked up)
chain: MAHAGRTGYDNREIVMKYIHYKLSQRGYEWDAGDTEAPEGTESEMETPSAVVHLTLRQAGDDFSRRYRRDFAEMSSQLHLTPFTARGRFATVVEELFRDGVNWGRIVAFFEFGGVMCVESVNREMSPLVDNIALWMTEYLNRHLHTWIQDNGGWDAFVELYGPSMR
modifications: biotin on the lysine of the biotin acceptor peptide (…)
median fluorescence [1]: 8.4 AU | median fluorescence [2]: 2.1 AU | median fluorescence [3]: 24.6 AU | median fluorescence [4]: 8.3 AU | median fluorescence [5]: 11.9 AU | median fluorescence [6]: 19.1 AU | median fluorescence [7]: 11.1 AU
